Positions count from the first letter of the chain named.
B1: 3A-1 (VHH)
VHH: EVKLVESGGDLVKPGGSLKLSCAASGFTFSSYGMSWIRQTPDKRLEWVATISSGGSYTYYPDSVKGRFTISRDNAKNTLYLQMSSLKSEDTAMYYCARRGRYDDTMDYWGQGTTVTVSS
B2: 3A-2 (VHH)
VHH: B1 VHH with V115L
B3: 3A-3 (VHH)
VHH: B1 VHH with K76E, T114S, V115L
B4: 3A-6 (VHH)
VHH: B1 VHH with A23V
B5: 3A-9 (VHH)
VHH: B1 VHH with S84G, T114S, V115L
B6: 3A-20 (VHH)
VHH: B1 VHH with K3Q, V5E
B7: 3A-31 (VHH)
VHH: B1 VHH with I37V, N77S, R101K, V115L

Target: IgG1 heavy chain of HG1 mice (γ1 CH1 exon deleted) (mouse (endogenous in serum of HG1 mice))
Assay: SDS-PAGE under non-reducing conditions with Western blotting; serum of HG1 and WT mice; detected with HRP-conjugated goat anti-mouse IgG1 heavy chain; association judged from molecular weights (covalent association)

Row | Molecule | stoichiometry N
1 | IgG1 heavy chain of HG1 mice (γ1 CH1 exon deleted) | 2

Target: ovalbumin (Gallus gallus (chicken), , UniProt P01012)
Assay: not given

Chain of ovalbumin (P01012 whole entry): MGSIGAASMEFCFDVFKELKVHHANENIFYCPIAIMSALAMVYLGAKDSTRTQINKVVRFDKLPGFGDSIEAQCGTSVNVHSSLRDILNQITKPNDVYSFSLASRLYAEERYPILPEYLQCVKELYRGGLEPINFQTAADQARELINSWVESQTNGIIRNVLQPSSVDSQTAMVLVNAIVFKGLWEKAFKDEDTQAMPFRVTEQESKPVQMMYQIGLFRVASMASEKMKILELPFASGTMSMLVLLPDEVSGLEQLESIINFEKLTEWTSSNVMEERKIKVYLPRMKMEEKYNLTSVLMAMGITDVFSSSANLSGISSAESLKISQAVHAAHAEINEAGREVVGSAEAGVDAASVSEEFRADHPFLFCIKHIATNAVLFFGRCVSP

Row | Molecule | binding result
2 | B1 | binds
3 | B2 | binds
4 | B3 | binds
5 | B4 | binds
6 | B5 | binds
7 | B6 | binds
8 | B7 | binds
